The data set deals with GST-Ras [GST: P08515].
Chain of GST-Ras [GST: P08515] (P08515 whole entry, looked up): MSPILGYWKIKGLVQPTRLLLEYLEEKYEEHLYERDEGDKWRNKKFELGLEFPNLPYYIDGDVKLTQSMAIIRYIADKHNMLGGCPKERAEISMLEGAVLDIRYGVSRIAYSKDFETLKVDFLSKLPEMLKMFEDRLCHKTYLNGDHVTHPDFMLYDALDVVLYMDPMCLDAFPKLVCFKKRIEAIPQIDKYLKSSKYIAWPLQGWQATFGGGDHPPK

For Flag-tagged full-length RasGRF2, the “fold Ras activation in vitro (bound 32P-GTP, against Ras without GRFs set to 1)” value is “the 4.5 fold activation conferred by GRF2, used as a control”.

Values taken from patent US20020143164.
